Laboratory results published in patent US20130129767A1.

Key:
[1] = molecular target: bovine serum albumin (bovine) (UniProt P02769); experiment: static adhesion assay, IEs on coated BSA
[2] = molecular target: decorin: CSPG (Chondroitin Sulfate Proteoglycan, Sigma) (bovine) (UniProt P21793); experiment: static adhesion assay, IEs on coated CSPG
Chain of UniProt P21793 (P21793 31-360 limits assumed): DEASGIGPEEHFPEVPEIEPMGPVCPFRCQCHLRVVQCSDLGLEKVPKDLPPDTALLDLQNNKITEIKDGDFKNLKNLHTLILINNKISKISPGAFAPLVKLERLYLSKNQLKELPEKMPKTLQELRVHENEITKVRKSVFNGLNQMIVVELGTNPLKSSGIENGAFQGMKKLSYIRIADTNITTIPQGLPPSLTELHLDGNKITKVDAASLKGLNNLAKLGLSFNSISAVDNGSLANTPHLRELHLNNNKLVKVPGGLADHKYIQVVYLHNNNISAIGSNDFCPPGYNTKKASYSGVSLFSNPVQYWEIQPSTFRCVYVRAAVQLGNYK

Chain of UniProt P02769 (P02769 25-607 limits assumed): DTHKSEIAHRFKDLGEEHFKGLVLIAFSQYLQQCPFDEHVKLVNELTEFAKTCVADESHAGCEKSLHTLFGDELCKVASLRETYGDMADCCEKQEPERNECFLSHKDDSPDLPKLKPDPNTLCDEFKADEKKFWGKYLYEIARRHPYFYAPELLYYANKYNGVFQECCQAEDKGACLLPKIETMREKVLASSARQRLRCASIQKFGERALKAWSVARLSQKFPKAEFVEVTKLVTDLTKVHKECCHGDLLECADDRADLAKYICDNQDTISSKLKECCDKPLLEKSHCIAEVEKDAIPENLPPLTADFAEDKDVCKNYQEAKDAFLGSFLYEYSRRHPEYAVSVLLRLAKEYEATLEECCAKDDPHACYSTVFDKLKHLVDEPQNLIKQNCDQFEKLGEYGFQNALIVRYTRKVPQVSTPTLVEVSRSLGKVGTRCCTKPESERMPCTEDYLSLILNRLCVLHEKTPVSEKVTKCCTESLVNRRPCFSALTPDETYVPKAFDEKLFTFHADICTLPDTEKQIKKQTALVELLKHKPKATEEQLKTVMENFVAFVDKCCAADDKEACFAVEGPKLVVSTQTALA

Row | Substance | Bound IEs/mm^2 on BSA [1] [IEs/mm^2] | Bound IEs/mm^2 on CSPG [2] [IEs/mm^2]
1 | surface of P. falciparum-infected erythrocytes of isolate 1MH016 (naturally infected pregnant person, Benin) | 2 | 178
2 | surface of P. falciparum-infected erythrocytes of isolate 1MMCH (naturally infected pregnant person, Benin) | 2.5 | 394
3 | surface of P. falciparum-infected erythrocytes of isolate AK357 (naturally infected pregnant person, Benin) | 2.5 | 337
4 | surface of P. falciparum-infected erythrocytes of isolate AK366 (naturally infected pregnant person, Benin) | 0.5 | 357
5 | surface of P. falciparum-infected erythrocytes of isolate CM307 (naturally infected pregnant person, Benin) | 1 | 623
6 | surface of P. falciparum-infected erythrocytes of isolate CM0375 (naturally infected pregnant person, Benin) | 5 | 63
7 | surface of P. falciparum-infected erythrocytes of isolate CM0425 (naturally infected pregnant person, Benin) | 1 | 1040
8 | surface of P. falciparum-infected erythrocytes of isolate CM0437 (naturally infected pregnant person, Benin) | 1 | 736
9 | surface of P. falciparum-infected erythrocytes of isolate CM445 (naturally infected pregnant person, Benin) | 1.5 | 218
10 | surface of P. falciparum-infected erythrocytes of isolate WP0140 (naturally infected pregnant person, Benin) | 2.5 | 244
11 | surface of P. falciparum-infected erythrocytes of isolate WP0161 (naturally infected pregnant person, Benin) | 1 | 1300
12 | surface of P. falciparum-infected erythrocytes of isolate WP0168 (naturally infected pregnant person, Benin) | 2 | 473
13 | surface of P. falciparum-infected erythrocytes of isolate WP0182 (naturally infected pregnant person, Benin) | 2 | 339
14 | surface of P. falciparum-infected erythrocytes of isolate WP0200 (naturally infected pregnant person, Benin) | 4.5 | 185
15 | surface of P. falciparum-infected erythrocytes of isolate WP203 (naturally infected pregnant person, Benin) | 1 | 161
